Measurements published in US20040142381A1, “Methods for designing IGF1 receptor modulators for therapeutics” (priority 2002, published 2004).

How the values were obtained:
[1] = test system: T1, synthetic peptide substrate KKEEEEYMMMMG
T1 sequence: KKEEEEYMMMMG

[2] = test system: T2, synthetic peptide KKKSPGEYVNIEFG, based on the IRS-1 phosphorylation site Tyr 895
T2 sequence: KKKSPGEYVNIEFG

[3] = target: synthetic peptide substrate …; assay: cell-based or functional assay
[4] = substrate: CC[C@H](C)[C@H](NC(=O)[C@H](CC(N)=O)NC(=O)[C@@H](NC(=O)[C@H](Cc1ccc(O)cc1)NC(=O)[C@H](CCC(=O)O)NC(=O)CNC(=O)[C@@H]1CCCN1C(=O)[C@H](CO)NC(=O)[C@H](CCCCN)NC(=O)[C@H](CCCCN)NC(=O)[C@@H](N)CCCCN)C(C)C)C(=O)N[C@@H](CCC(=O)O)C(=O)N[C@@H](Cc1ccccc1)C(=O)NCC(=O)O; assay: Km of IRS-1 Tyr 895-derived peptide substrate for IGF1RK; type: biochemical, human; conditions: other: peptide as substrate of IGF1RK

**Q.** With “IGF1RK, unphosphorylated form (0P): tyrosine kinase domain of the human insulin-like growth factor 1 receptor, residues 956-1,256” as the molecule, how does the “induction time of autophosphorylation at varying enzyme concentration (continuous spectrophotometric assay)” value read?
**A.** Its value is “the phosphorylation reaction was concentration dependent”.

**Q.** And the Peptide Km [1]?
**A.** The Peptide Km was 1300 µM.

**Q.** Which Km [2] does the source give for “IGF1RK (phosphorylation state not stated)” here?
**A.** Its Km is “The Km for this peptide was determined to be 128 µM for IGF1RK”.

**Q.** Which Peptide Km [1] does the source give for IGF1RK, mono-phosphorylated form (1P) here?
**A.** The Peptide Km was 620 µM.

**Q.** For IGF1RK, bis-phosphorylated form (2P), which Peptide Km [1] is on record?
**A.** Its Peptide Km is 130 µM.

**Q.** With “IGF1RK, tris-phosphorylated, activated form (3P) (enzyme)” as the molecule, how does the Km for peptide ([γ-32P]ATP and phosphocellulose binding assay) [3] read?
**A.** Its Km for peptide ([γ-32P]ATP and phosphocellulose binding assay) is 150 µM.

**Q.** For “IGF1RK, tris-phosphorylated, activated form (3P)”, which Peptide Km [1] is on record?
**A.** The Peptide Km was 120 µM.

B1: IGF1RK (Homo sapiens) (protein)
chain: VYVPDEWEVAREKITMSRELGQGSFGMVYEGVAKGVVKDEPETRVAIKTVNEAASMRERIEFLNEASVMKEFNCHHVVRLLGVVSQGQPTLVIMELMTRGDLKSYLRSLRPEMENNPVLAPPSLSKMIQMAGEIADGMAYLNANKFVHRDLAARNCMVAEDFTVKIGDFGMTRDIYETDYYRKGGKGLLPVRWMSPESLKDGVFTTYSDVWSFGVVLWEIATLAEQPYQGLSNEQVLRFVMEGGLLDKPDNCPDMLFELMRMCWQYNPKMRPSFLEIISSIKEEMEPGFREVSFYYSEENK
notes: encoding residues 956-1,256 of the human insulin-like growth factor 1 receptor (IGF1RK); made in house; host or cells: Spodoptera frugiperda (Sf9) cells, baculovirus
**Q.** For B1, which Km [4] is on record?
**A.** Its Km is 128 µM.
